Patent publication US20030144208A1 (ZymoGenetics, published 2003)

Target: T1, BSA V (Sigma Co.) (bovine, UniProt P02769 25-607)
T1 construct: Negative control of the ELISA; also called BSA control; bovine serum albumin
Assay: ELISA on plated matrix protein, anti-FITC/biotin, streptavidin/HRP, chemiluminescence on film
Description: An ELISA (Enzyme-linked Immunosorbant Assay) was used to measure binding of zsig37 to various matrix proteins and complement C1q. The matrix proteins used were Bovine Collagen Type I (Becton Dickinson, Lincoln Park, N.J.) laminin, vitronectin, fibronectin, human collagen Types II, III, IV, V, VI (Chemicon International, Temecula, Calif.). BSA V (Sigma Co.) was used as a negative control. Just prior to use, the proteins were diluted in 2×PBS (Phosphate Buffered Saline, Sigma Co.) to 100 μg/ml and adjusted to pH 7.2 with 0.1 N NaOH. Each protein sample was quadruplicate plated (100 μl/well) into a 96 well plate. The plate was allowed to dry overnight in a laminar flow hood and washed 3 times with 400 μl of 5 mg/ml BSA in 1×PBS and blotted dry. Zsig37 was FITC labeled according to manufacturer's instruction (Pierce, Rockford, Ill.). Into each well was added 100 μl of 1.8 μg/ml zsig37-FITC in 5% BSA, PBS. The plates were incubated for 1.5 hours at room temperature then washed 3 time with 5% BSA, PBS. To each well was then added 100 μl of 1:400 mouse anti-FITC/Biotin (Sigma Co.). The plate was incubated 1.5 hours at room temperature and washed 3 times with 5% BSA, PBS. The plate was then incubated with 100 μl of 1:1000 streptavidin/HRP (Amersham, Piscataway, N.J.) for 1 hour and washed 3 times with 5% BSA, PBS. […]

T1 sequence (P02769 25-607 limits assumed): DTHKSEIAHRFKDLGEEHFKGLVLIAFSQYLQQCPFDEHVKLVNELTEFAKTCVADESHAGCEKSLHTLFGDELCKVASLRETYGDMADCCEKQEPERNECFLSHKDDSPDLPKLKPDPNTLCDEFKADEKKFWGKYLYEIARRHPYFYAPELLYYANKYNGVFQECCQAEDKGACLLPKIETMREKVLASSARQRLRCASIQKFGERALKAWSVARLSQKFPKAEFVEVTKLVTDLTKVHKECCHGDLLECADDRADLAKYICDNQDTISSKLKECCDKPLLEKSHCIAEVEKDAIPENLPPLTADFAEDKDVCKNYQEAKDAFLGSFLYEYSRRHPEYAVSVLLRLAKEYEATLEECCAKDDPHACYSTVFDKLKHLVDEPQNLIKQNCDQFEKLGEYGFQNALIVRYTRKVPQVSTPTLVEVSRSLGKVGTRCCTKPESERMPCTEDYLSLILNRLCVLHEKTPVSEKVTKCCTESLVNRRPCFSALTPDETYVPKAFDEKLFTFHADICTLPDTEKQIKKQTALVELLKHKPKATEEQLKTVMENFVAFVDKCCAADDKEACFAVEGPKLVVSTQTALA

B1: zsig37-FITC (ligand)
chain: LVLSRVPHVQGEQQEWEGTEELPSPPDHAERAEEQHEKYRPSQDQGLPASRCLRCCDPGTSMYPATAVPQINITILKGEKGDRGDRGLQGKYGKTGSAGARGHTGPKGQKGSMGAPGERCKSHYAAFSVGRKKPMHSNHYYQTVIFDTEFVNLYDHFNMFTGKFYCYVPGLYFFSLNVHTWNQKETYLHIMKNEEEVVILFAQVGDRSIMQSQSLMLELREQDQVWVRLYKGERENAIFSEELDTYITFSGYLVKHATEP
modifications: FITC label (sites not given)
notes: 22-281 is used here; also called FITC labeled zsig37; FITC tagged Zsig37 protein
B1: no binding (tested: 1.8 µg/ml zsig37-FITC).
